Test [1] has as its target T1, human PD-L1 (construct not stated) (human, UniProt Q9NZQ7 19-239, limits assumed).
T1 construct: also called B7-H1 (PD-L1); PD-L1 protein
Briefly: SPR Biacore, affinity ranking. For orientation: SPR reads the build-up and loss of mass on a sensor chip optically.

A further test has as its target T2, human PD-L1-Fc protein (human, UniProt Q9NZQ7 19-239).
T2 construct: Coated on ELISA plates; also called huPD-L1; not shown: Fc part
The test is described as follows: ELISA on coated human PD-L1-Fc. The method, then: To evaluate the antigen binding activity, the antibodies were subjected to ELISA test. Briefly, microtiter plates were coated with human PD-L1-Fc protein at 2 μg/ml in PBS, 100 μl/well at 4° C. overnight, then blocked with 100 μl/well of 5% BSA. 4-fold dilutions of humanized antibodies starting from 10 μg/ml were added to each well and incubated for 1-2 hours at RT. The plates were washed with PBS/Tween and then incubate with […] antibody conjugated with Horse Radish Peroxidase (HRP) for 1 hour at RT. After washing, the plates were developed with TMB substrate and analyzed by spectrophotometer at OD 450-630 nm.
For orientation: ELISA stands for enzyme-linked immunosorbent assay.

The target in test [2] is T3, human PD-L1 expressed on mammalian cells (human, UniProt Q9NZQ7 19-290).
T3 construct: whole, on cells; also called PDL1-CHOK1 cells; PDL1-Raji cells
The test is described as follows: cell-based binding on Raji-PDL1 cells (FACS by paragraph 328; the y axis of the sheet is labelled IL2 (ng/ml)); EC50 table has no unit, x axis Concentration (nM). The method, then: To evaluate the antigen binding property, the antibodies were analyzed for its binding to mammalian expressed PD-L1 by FACS. Briefly, PDL1-Raji cells were firstly incubated with 5-fold serious diluted humanized antibodies starting at 2 µg/ml at RT for 1 hour. After wash by FACS buffer (PBS with 2% FBS), the Alexa 488-anti-human IgG antibody was added to each well and incubated at RT for 1 hour. The MFI of Alexa 488 was evaluated by FACSAriaIII.

Test [3] concerns the target T4, human LAG3-His protein (Sinobio, 16498-H08H) (human, UniProt P18627 23-450).
T4 construct: also called human LAG3 protein; not shown: His tag
T4 sequence (looked up): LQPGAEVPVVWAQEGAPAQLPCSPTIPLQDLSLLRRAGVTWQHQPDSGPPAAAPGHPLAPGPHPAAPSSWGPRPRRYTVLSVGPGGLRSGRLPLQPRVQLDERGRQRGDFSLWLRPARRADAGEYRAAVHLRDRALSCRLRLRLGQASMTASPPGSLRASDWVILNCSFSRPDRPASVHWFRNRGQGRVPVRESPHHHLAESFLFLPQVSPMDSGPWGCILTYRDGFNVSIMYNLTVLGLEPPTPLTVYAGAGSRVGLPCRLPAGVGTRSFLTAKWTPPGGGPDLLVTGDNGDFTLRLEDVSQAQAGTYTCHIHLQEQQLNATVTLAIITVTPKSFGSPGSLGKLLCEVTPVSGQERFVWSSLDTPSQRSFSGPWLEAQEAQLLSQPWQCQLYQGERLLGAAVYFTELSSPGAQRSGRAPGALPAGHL
Briefly: ELISA on coated human LAG3-His, panel LAG3. In short, it runs like this:
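Bispecific antibodies were tested by ELISA on plates coated overnight at 4° C with human LAG3-His protein at 0.5 μg/ml in PBS (100 μl/well), then blocked with 5% BSA. Four-fold antibody dilutions starting from 100 nM were incubated for 1-2 hours at RT. EC50 was read off the binding curve.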

The target of test [4] is T5, human LAG3 on cells (human, UniProt P18627 23-525).
T5 construct: whole, on cells; also called Jurkat-LAG3
T5 sequence (looked up): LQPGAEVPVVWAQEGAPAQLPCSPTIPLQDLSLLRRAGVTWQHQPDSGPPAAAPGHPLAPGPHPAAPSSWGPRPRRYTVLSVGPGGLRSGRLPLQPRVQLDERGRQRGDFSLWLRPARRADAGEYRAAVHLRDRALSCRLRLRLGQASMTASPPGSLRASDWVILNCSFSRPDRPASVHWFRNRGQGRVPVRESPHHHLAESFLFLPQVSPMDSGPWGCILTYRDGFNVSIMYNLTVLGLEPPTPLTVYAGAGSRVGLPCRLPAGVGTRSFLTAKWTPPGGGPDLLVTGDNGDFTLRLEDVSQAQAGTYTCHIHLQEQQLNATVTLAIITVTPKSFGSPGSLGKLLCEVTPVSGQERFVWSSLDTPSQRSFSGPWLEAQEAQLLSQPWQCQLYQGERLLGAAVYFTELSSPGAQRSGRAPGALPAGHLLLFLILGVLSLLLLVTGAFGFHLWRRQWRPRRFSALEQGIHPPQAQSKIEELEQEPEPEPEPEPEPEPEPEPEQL
Briefly: flow cytometry on activated CD4 T cells. Here is the method:
(§1) To further confirm affinity matured anti-LAG-3 antibodies could bind to cell-derived human LAG3, both inducible hLAG3 expressed Jurkat cells and activated PBMCs were used to test the binding capability of B3807b and B3810. In brief, Jurkat cells were resuspended in FACS buffer. Anti-LAG3 antibodies and isotype control were 4-fold serially diluted in FACS buffer with a dose ranging from 20 nM to 30 pM. The serially diluted antibodies were added to the cell suspension and incubated for 30 minutes on ice. Then after removal of unbound antibodies, cells were stained with anti-human IgG conjugated with Alexa Fluor 633 (Thermo, A21091). Fluorescence measurement was acquired on FACSCelesta flow cytometer and analyzed in Flowjo to determine the mean fluorescence intensities (MFI). To test anti-LAG3 antibodies' ability of binding to native human LAG3, PBMCs from health donor were stimulated with anti-CD3 (BD, 555336) and anti-CD28 (BD, 555725) both at a concentration of 1 ug/ml. Following 3 days' stimulation, cells were harvested and incubated with anti-LAG3 antibodies for 30 mins on ice. The cells were stained with anti-human CD4 and anti-human IgG. Analysis of antibodies binding to CD4+ cells were carried out on FACSCelesta flow cytometry. […] FIG. 31 is a graph showing the binding curve of anti-LAG3 antibodies.
On the technique in general: A flow cytometer gives signals particle by particle.

Test [5] concerns the target T6, recombinant human LAG-3-ECD-human IgG1 fusion protein (human, UniProt P18627 23-450, biotin-labeled in the MHC class II blocking assays).
T6 construct: extracellular domain; also called LAG-3-huFc; LAG-3-ECD-huFc; not shown: human IgG1 Fc
T6 sequence (looked up): T4 sequence (looked up)
Briefly: ELISA as Example 2.2, coated human LAG3 ECD-Fc. The method, then:
To evaluate the capability of the anti-LAG-3 antibodies to bind to human, rat, and mouse LAG3 the antibodies identified in Example 2.1 were evaluated for their binding property through ELISA. The human, rat and mouse LAG3 ECD-Fc protein were coated to ELISA plate at 1 μg/ml with 100 μl/well. Antibodies from Example 1 were serially diluted with ELISA diluent buffer. […] The resulting plates were washed and then labeled with anti-human IgG(Fab)-HRP antibody. The S31 can only bind to human LAG3. The S27 and T99 can bind to human LAG3 and rat/mouse LAG3 with lower potency. The S119 antibody can bind to human, rat and mouse LAG3 at high potency (FIGS. 22A-22D).

Test [6] concerns the target T7, recombinant his-tag human LAG3-ECD protein (human, UniProt P18627 23-450).
T7 construct: extracellular domain; not shown: his tag
T7 sequence (looked up): T4 sequence (looked up)
Briefly: SPR Biacore T200, capture method as Example 2.7.

In test [7] the target is T5, human LAG3 on cells. The test is described as follows: flow cytometry on hLAG3-expressing Jurkat cells. The method, then: as §1
The target in test [8] is T7, recombinant his-tag human LAG3-ECD …. Briefly: Biacore, antibody captured, His-tag human LAG3-ECD injected (procedure of Example 2.16(B)). The method, then:
(§2) The binding of B3807 to recombinant His-tag human LAG3-ECD protein was examined by Biacore T200 using a capture method. B3807 was captured using protein A which was immobilized on CM5 sensor chip. Serial concentrations of his-tag human LAG3-ECD protein (0-12 nM) were injected over capture antibodies at the flow rate of 30 μl/min. The dissociation phase was 900 s or 550 s.
(§3) B3807 was used in the following examples for further testing and preparing bispecific antibodies.

The target is the same in test [9]. Briefly: Biacore, antibody captured, His-tag human LAG3-ECD injected (procedure of Example 2.16(B)); column kd(1/s). The method, then: as §2, §3
Test [10] shares this target. Briefly: Biacore, antibody captured, His-tag human LAG3-ECD injected (procedure of Example 2.16(B)); column ka (1/Ms). Here is the method: as §2, §3
Test [11] deals with T5, human LAG3 on cells. The test is described as follows: flow cytometry (MFI) on Jurkat-LAG3 cells, upper panel; EC50 table has no unit, x axis Concentration (nM); Table 31 of the text prints the rounded 0.4. The method, then:
as §1

For test [12], the target named is T5, human LAG3 on cells. The test is described as follows: flow cytometry (MFI) on activated CD4 T cells, lower panel; EC50 table has no unit, x axis Concentration (nM); Table 31 of the text prints the rounded 0.33. Here is the method:
as §1

Test [13] has as its target T5, human LAG3 on cells. Briefly: flow cytometry (MFI) on Jurkat-LAG3 cells, upper panel; EC50 table has no unit, x axis Concentration (nM); Table 31 of the text prints the rounded 0.5. The method, then: as §1
For test [14], the target named is T5, human LAG3 on cells. The test is described as follows: flow cytometry (MFI) on activated CD4 T cells, lower panel; EC50 table has no unit, x axis Concentration (nM); Table 31 of the text prints the rounded 0.39. The method, then:
as §1

Changes are numbered by the printed parent chain.

T1 sequence (Q9NZQ7 19-239 limits assumed): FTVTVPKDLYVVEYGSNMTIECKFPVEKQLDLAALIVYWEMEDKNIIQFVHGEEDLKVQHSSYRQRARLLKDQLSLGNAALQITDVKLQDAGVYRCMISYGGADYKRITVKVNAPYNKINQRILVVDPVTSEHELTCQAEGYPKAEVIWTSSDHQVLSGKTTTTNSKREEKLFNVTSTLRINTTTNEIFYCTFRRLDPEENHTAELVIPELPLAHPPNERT
T2 sequence (Q9NZQ7 19-239 limits assumed): as above
T3 sequence (Q9NZQ7 19-290): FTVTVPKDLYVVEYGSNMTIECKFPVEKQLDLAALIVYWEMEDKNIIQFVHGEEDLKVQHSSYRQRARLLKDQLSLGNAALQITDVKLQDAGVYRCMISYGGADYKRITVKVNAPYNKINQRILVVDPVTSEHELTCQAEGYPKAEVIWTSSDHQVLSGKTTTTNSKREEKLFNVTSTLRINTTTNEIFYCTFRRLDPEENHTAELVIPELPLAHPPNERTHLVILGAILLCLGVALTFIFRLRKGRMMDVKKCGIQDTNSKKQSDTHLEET

B1: B6 (antibody, V domains shown)
VH: EVQLVESGGGLVQPGGSLRLSCAASGFTFSSYDMSWVRQAPGKSLEWVATISDAGGYIYYRDSVKGRFTISRDNAKNSLYLQMNSLRDEDTAVYICARELPWRYALDYWGQGTTVTVSS
VL: DIQMTQSPSSLSASVGDRVTITCKASQDVTPAVAWYQQKPGKAPKLLIYSTSSRYTGVPSRFSGSGSGTDFTFTISSLQPEDIATYYCQQHYTTPLTFGQGTKLEIK
notes: also called B6 monoclonal antibody
In test [1], B1 came in with a Kd of 1.02 nM, a koff of 0.000246 s⁻¹ and a kon of 242000 M⁻¹ s⁻¹. Besides, the “EC50 (read off the curve)” value with human PD-L1-Fc protein was around 0.2 µg/mL. The EC50 in [2] came out at 1.2 nM.

B2: 147(H3807)xH12 (bispecific antibody, human IgG4 S228P, kappa)
heavy: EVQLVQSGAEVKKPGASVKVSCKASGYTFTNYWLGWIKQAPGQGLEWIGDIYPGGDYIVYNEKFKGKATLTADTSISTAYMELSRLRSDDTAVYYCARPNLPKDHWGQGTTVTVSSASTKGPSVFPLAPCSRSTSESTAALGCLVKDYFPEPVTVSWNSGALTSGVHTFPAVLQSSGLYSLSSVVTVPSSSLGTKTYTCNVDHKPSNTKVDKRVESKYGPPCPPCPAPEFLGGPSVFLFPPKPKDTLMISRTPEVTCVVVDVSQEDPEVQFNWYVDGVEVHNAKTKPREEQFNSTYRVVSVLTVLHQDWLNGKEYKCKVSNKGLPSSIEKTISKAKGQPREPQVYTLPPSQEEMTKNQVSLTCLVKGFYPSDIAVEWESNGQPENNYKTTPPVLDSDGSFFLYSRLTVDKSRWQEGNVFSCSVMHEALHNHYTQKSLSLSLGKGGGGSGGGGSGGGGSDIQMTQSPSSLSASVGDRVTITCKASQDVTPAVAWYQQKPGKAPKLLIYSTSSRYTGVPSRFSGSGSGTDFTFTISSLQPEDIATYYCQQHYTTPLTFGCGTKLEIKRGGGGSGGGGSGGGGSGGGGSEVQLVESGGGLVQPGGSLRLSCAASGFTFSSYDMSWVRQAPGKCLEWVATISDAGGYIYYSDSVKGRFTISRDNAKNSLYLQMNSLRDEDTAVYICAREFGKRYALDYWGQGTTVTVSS
light: DIVMTQSPLSLPVTPGEPASISCRSSKSLLHSQGITYLYWYLQKPGQSPQLLIYQVSNLASGVPDRFSGSGSGTDFTLKISRVEAEDVGVYYCAQYLELPWTFGGGTKVEIKRTVAAPSVFIFPPSDEQLKSGTASVVCLLNNFYPREAKVQWKVDNALQSGNSQESVTEQDSKDSTYSLSSTLTLSKADYEKHKVYACEVTHQGLSSPVTKSFNRGEC
Regarding B2, in [3], the “EC50 (read off the curve)” value is around 0.4 nM.

B3: 147H 3807b (antibody, V domains shown)
VH: EVQLVQSGAEVKKPGASVKVSCKASGYTFTNYWLGWIKQAPGQGLEWIGDIYPGGDYIVYNEKFKGKATLTADTSISTAYMELSRLRSDDTAVYYCARPNLPKDHWGQGTTVTVSS
VL: DIVMTQSPLSLPVTPGEPASISCRSSKSLLHSNAITYLYWYLQKPGQSPQLLIYQVSNLASGVPDRFSGSGSGTDFTLKISRVEAEDVGVYYCAQYLELPWTFGGGTKVEIK
notes: also called B3807b
As to B3, the EC50 with human LAG3 on cells [4] stood at 0.33 nM; in test [5], 0.41 nM; with human LAG3 on cells [7], 0.4 nM; in the test with human LAG3 on cells [11], 0.39 nM; in the test with human LAG3 on cells [12], 0.333 nM. Also, the Kd turned out to be 0.51 nM in test [6] and 0.968 nM in test [8]. Also, the koff was determined as 0.002 s⁻¹ in test [6] and 0.00334 s⁻¹ in [9]. For the same molecule, the kon in test [6] was 4e+06 M⁻¹ s⁻¹; in test [10], 3.46e+06 M⁻¹ s⁻¹.

B4: 147H 3810 (antibody, V domains shown)
VH: B3 VH with T28L
VL: B3 VL with S61T
notes: also called B3810
In the case of B4, the EC50 in the test with human LAG3 on cells [4] came out at 0.39 nM; in test [5] it was 0.49 nM; with human LAG3 on cells [7], 0.5 nM; with human LAG3 on cells [13] it was 0.492 nM; with human LAG3 on cells [14], 0.391 nM. Moreover, the Kd in test [6] was determined as 0.41 nM. Also, in [6], the koff came out at 0.0019 s⁻¹. Besides, the kon in test [6] was determined as 4.7e+06 M⁻¹ s⁻¹.

By Kd is commonly meant the equilibrium constant for the complex coming apart. The term koff denotes a measure of how fast the partners let go of each other. As a reminder, the kon is the second-order rate constant of association. For orientation: EC50 (read off the curve) means the concentration at which the effect is half-maximal. High values mean weaker potency, low ones greater potency. What is called EC50 is the concentration at which the effect is half-maximal.

For the origin of these results see US20220363763A1 (ABL BIO, published 2022).
